# Assay results as given in the PETadex activity labels (doi:10.1038/s41467-025-61599-z).
# Assays:
# PET [1] = test: Proxy for plastic degradation [Released monomer concentration (HPLC/LC-MS) (MHET+TPA)]; details: pH 9, part of the chain shown
# PET [2] = test: Proxy for plastic degradation [kcat/Km (catalytic efficiency)] (mM⁻¹s⁻¹); details: pH 8; part of the chain shown
# [3] = Proxy for plastic degradation [Released monomer concentration (HPLC/LC-MS) (TPA+MHET)]; details: part of the chain shown
# PET [4] = test: as above; details: part of the chain shown
# pNPB = test: Proxy for plastic degradation [Absorbance @ 430nm] (min⁻¹); details: pH 8; part of the chain shown
Sequence,Proxy for plastic degradation (PET [1]; 30 °C) [µM],Proxy for plastic degradation (PET [1]; 40 °C) [µM],Proxy for plastic degradation (PET [1]; 50 °C) [µM],Proxy for plastic degradation (PET [1]; 55 °C) [µM],Proxy for plastic degradation (PET [1]; 60 °C) [µM],Proxy for plastic degradation (PET [2]),Proxy for plastic degradation ([3]; 30 °C) [µM],Proxy for plastic degradation ([3]; 40 °C) [µM],Proxy for plastic degradation ([3]; 60 °C) [µM],Proxy for plastic degradation (PET [4]; 30 °C) [µM],Proxy for plastic degradation (PET [4]; 40 °C) [µM],Proxy for plastic degradation (PET [4]; 55 °C) [µM],Proxy for plastic degradation (PET [4]; 60 °C) [µM],"Proxy for plastic degradation (PET [4]; pH 9, 50 °C, 24 h) [µM]","Proxy for plastic degradation (PET [4]; pH 9, 50 °C, 48 h) [µM]","Proxy for plastic degradation (PET [4]; pH 9, 50 °C, 72 h) [µM]",Proxy for plastic degradation (pNPB)
DEIGQAPTAANITGDGSFSTSSSAIFGQSGFGGGTAYYPNTAGKYPVVAF,65.5,759,3600,596,167,0.263,65,759,167,65.5,759,167,104,742,1640,3600,34300
ESETTAAAVSSRYYEETGPHAVTVEQGGPDHTLYYPSDLGAGGT,13.9,14.7,10.6,15.5,15.3,–,–,–,–,–,–,–,–,–,–,–,32300
DPWDAPGPYATAVQIGAVNTLYYPRDIASSPRRHPVIVWGNGT,13,13.4,14.2,13.4,14.1,–,–,–,–,–,–,–,–,–,–,–,21900
VTKGPDPSAAEVAKVTGSYAVTETKVDDAASTKFGPATV,15,12.8,15.3,16.2,16.3,–,–,–,–,–,–,–,–,–,–,–,31400
QTNPYARGPNPTAASLEASAGPFTVRSFTVSRPSGYGAGTVYY,17.3,64.7,46.9,27.4,17.4,–,–,–,–,–,–,–,–,–,–,–,24900
FGNNGGGGGGEDNVFAEPGDFDVVTEPGGRDCTIFRPEQLGDDH,14,13.8,15.8,14.4,14.9,–,–,–,–,–,–,–,–,–,–,–,23500
AGFEKGPDPTTASVTADRGSYDIAQVDVPKGSGTGFADGTIYY,14.6,14.2,14.1,14.4,15,–,–,–,–,–,–,–,–,–,–,–,16200
LDSPYQRGPDPTEASVKAIAGPFAVDQVKATGHTGFGSGTIFYP,11.2,22.8,44.2,26.1,19.7,–,–,–,–,–,–,–,–,–,–,–,41400
TPEFKPQPGPLSIKSAAAISFRVEDQAKDLQIRVTYPDGPGPWP,15.7,12.8,17.3,17.3,17.2,–,–,–,–,–,–,–,–,–,–,–,16800
NNPGGGGGTAPDTGTGFPGVSNFSASGSFATTSGSAGASCTVFRPST,8.31,9.03,9.57,9.09,9.47,–,–,–,–,–,–,–,–,–,–,–,25400
CFGGGDPDPSPEGQALGVPGDFEICSYEANLENDGYASARMTYPCDLS,9.91,9.79,11,10.1,10.5,–,–,–,–,–,–,–,–,–,–,–,24400
QDNSDGRYRPEGRTFARGAANLFDDRLFEARTYVTGTDVA,15.4,15.5,15.5,16.6,16.1,–,–,–,–,–,–,–,–,–,–,–,49500
GDPPAVRTVPAAAAAPVDWSKTGPHQVKVDKADAHTIYRPSDLG,12.7,12.6,15.7,16,16.4,–,–,–,–,–,–,–,–,–,–,–,44800
